Assay results taken from patent US20230016112A1 (IBIO, published 2023).

T1: full-length CD25 (human, UniProt P01589 22-186, limits assumed)
T1 construct: The assays used soluble 'full-length CD25'; also called Hu CD25; IL-2 receptor alpha chain
T1 chain: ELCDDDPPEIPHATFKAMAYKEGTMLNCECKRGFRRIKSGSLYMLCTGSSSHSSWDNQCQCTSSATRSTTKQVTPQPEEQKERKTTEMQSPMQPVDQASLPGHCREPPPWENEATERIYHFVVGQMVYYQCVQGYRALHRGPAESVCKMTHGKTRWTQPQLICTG

B1: YU392-E05 (antibody)
scFv: QVQLQESGPGLVKPSGTLSLTCTVSGGSISSSNWWSWVRQPPGKGLEWIGEIYHSGSTNYNPSLKSRVTISVDKSKNQFSLKLSSVTAADTAVYYCARGVIAAAGTYFDYWGQGTLVTVSSQAVLTQPPSASGTPGQRVTISCSGSRPNVASNSVNWYQQFPGTAPRLLIYSDNQRPSGVPDRFSGSKSGTSASLAISGLQFEDEADYYCETWDDSLRGVVFGGGTKVTVL
notes: Tested as full-length human IgG1
B2: YU400-D09 (antibody)
scFv: PGSSVKVSCKASGGTFSSYAISWVRQAPGQGLEWMGGIIPIFGTANYAQKFQGRVTITADESTSTAYMELSSLRSEDTAVYYCARDFNPFSITIFEMDVWGQGTTVTVSSQSVLTQPPSVSAAPGQKVTISCSGSSSNIGNNYVSWYQQLPGTAPKLLIYDNNKRPSGIPDRFSGSKSGTSATLGITGLQTGDEADYYCGTWDSSLSALVFGGGTKLTVL
notes: as for B1
B3: YU397-D01 (antibody)
scFv: PSGTLSLTCAVSGGSISSSNWWSWVRQPPGKGLEWIGEIYHSGSTNYNPSLKSRVTISVDKSKNQFSLKLSSVTAADTAVYYCARARGGRYFDYWGQGTLVTVSSDIVLTQSPSFLSASVGDRVTITCRASQGISTYLAWYQQKPGTAPKVLMYAASTLHSGVPSRFSGSGSGTEFTLTISSLQPEDFAIYYCQQLNGYPTTFGGGTRVEIK
notes: as for B1
B4: YU392-G09 (antibody)
scFv: QVQLVQSGAEVKKPGSSVKVSCKASGGTFSSYAISWVRQAPGQGLEWMGGIIPIFGTANYAQKFQGRVTITADESTSTAYMELSSLRSEDTAVYYCARDGAGNYDILTGDRSEDYYYYYGMDVWGQGTTVTVSSSYELTQPPSASGAPGQRVSISCSGGYSNIGSNTVNWYQQLPGAAPKFLIYSDNQRPSGVPDRFSGSKSGTSASLAISGLQSEDEADYYCATWDDSLNGPVFGGGTKLTVL
notes: as for B1
B5: YU403-G05 (antibody)
scFv: PSGDLSLTCDVSGGSISRSNWWIWVRQPPGKGLEWIGEIYHTGSTNYNPSLKRRVTISVDKSKNQFSLNLSSVTAADTAVYYCARGKGSYAFDIWGLGTMVTVSSVLTQPHSVSESPGKTVTISCTGSGGNIARNYVQWYQHRPGRAPSTVIYEDDRRPSGVPDRFSGSTDISSNSASLTISGLKTEDEADYYCQSYDGNNHMVFGGGTRVTVL
notes: as for B1
B6: YU392-E06 (antibody)
scFv: QLQLQESGPGLVKPSGTLSLTCAVSGGSISSSNWWSWVRQPPGKGLEWIGEIYHSGSTNYNPSLKSRVTISVDKSKNQFSLKLSSVTAADTAVYYCARERTHYYYGMDIWGQGTTVTVSSQSVLTQPPSTSGTPGQRVTISCSGSSSNIGSNTVNWYHQLPGTAPRLLIYSNNQRPSGVPDRFSGSKSGTSASLALSGLQSEDEGDYYCAAWDDSLNGYVFGTGTKVTVL
notes: as for B1
B7: YU389-A03 (antibody)
scFv: PSQTLSLTCTVSGGSISSGGYYWSWIRQHPGKGLEWIGYIYYSGSTYYNPSLKSRVTISVDTSKNQFSLKLSSVTAADTAVYYCARGNLWSGYYFWGQGTLVTVSSQSVLTQPPSVSAAPGQKVTISCSGSSSNIGNNFVSWYQQVPGTAPKLLTYDSTKRPAGIPDRFSGSKSGTSATLEIAGLQTGDEADYYCGSWDTNLSGYVFGTGTKVTVL
notes: as for B1
B8: YU398-A11 (antibody)
scFv: PGRSLRLSCAASGFTFSSYGMHWVRQAPGKGLEWVAVISYDGSNKYYADSVKGRFTISRDNSKNTLYLQMNSLRAEDTAVYYCAKGQGDGMDVWGQGTTVTVSSYELTQPPSASGTPGQRVTISCSGSSSNVGSRTVSWFQQLPGTAPKLLIYSNNLRPSGVPDRFSGSKSGTSASLAISGLQSEDEADYYCAAWDDSLIGHVFGTGTKVTVV
notes: as for B1
B9: YU392-A09 (antibody)
scFv: PGATVKISCKVSGYTFTDYYMHWVQQAPGKGLEWMGLVDPEDGETIYAEKFQGRVTITADTSTDTAYMELSSLRSEDTAVYYCATEGRYGMDVWGQGTTVTVSSQAVLTQPPSVSGTPGQRVTISCSGNNFNIGNNLVYWYQQLPGTAPKLLIYANDERPSGVPDRFSGSKSGTSASLAISGLRSEDDADYYCATWDDSLSGVVFGGGTKLTAL
notes: as for B1
B10: YU401-G07 (antibody)
scFv: LGRSLRLSCAASGFTFSSYGMHWVRQAPGKGLEWVAVISYDGSNKYYADSVKGRFTISRDNSKNTLYLQMNSLRAEDTAVYYCAKGDVNYGMDVWGQGTTVTVSSSYVLTQPPSVSVAPGQTARISCGGSNIGSKTVNWYRKKAGQAPVLVVYDGRDRPSGIPERFSGSNSGNAATLIISRVEVGDEADYYCQVWDTSGDLHWAFGGGTKLTVL
notes: as for B1
B11: YU400-B07 (antibody)
scFv: PGRSLRLSCAASGFTFSSYGMHWVRQAPGKGLEWVAVISYDGSNKYYADSVKGRFTISRDNSKNTLYLQMNSLRAEDTAVYYCAKGDVNYGMDVWGQGTTVTVSSSYVLTQPPSVSVAPGKTARITCGGNNIGSKSVHWYQQKPGQAPVLVVYDDTDRPSGIPERFSGSNSGNTATLTISRVEAGDEADYYCQVWDSSSDLLWVFGGGTKLAVL
notes: as for B1
B12: YU392-H04 (antibody)
scFv: QVQLQESGPGLVKPSGTLSLTCAVSGGSISSSNWWSWVRQPPGKGLEWIGEIYHSGSTNYNPSLKSRVTISVDKSKNQFSLKLSSVTAADTAVYYCARVNYGDYDWYFDLWGRGTLVTVSSQPVLTQPPSASGTPGQRVTISCSGSSSNIGSNFVTWYQQLPGTAPKLLIYSNNQRPSGVSDRFSASKSGTSASLAISRLQSQDEAEYYCAAWDDSLRSYVFGSGTKVTVV
notes: as for B1
B13: YU390-B12 (antibody)
scFv: PGRSLRLSCAASGFTFSSYGMHWVRQAPGKGLEWVAVISYDGSNKYYADSVKGRFTISRDNSKNTLYLQMNSLRAEDTAVYYCAKELLEGAFDIWGQGTMVTVSSSYVLTQPPSLSVAPGQTARITCGGDNIETKSVHWYQQRPGQAPVLVVYDDDDRPSGIPERFSGSNSGNTATLTISRVEAGDEADYYCQVWDSSSGHREVFGGGTKLTVL
notes: as for B1
B14: YU392-G12 (antibody)
scFv: QVQLQESGSGLVKPSQTLSLTCAVSGGSISSGGYSWSWIRQPPGKGLEWIGYIYHSGSTYYNPSLKSRVTISVDRSKNQFSLKLSSVTAADTAVYYCARAGYYYGMDVWGQGTTVTVSSDIVMTQTPSSLSASVGDRVAITCQASRNIWSYVNWYQQKPGEAPRLLIYGASTLQRGVPSRFSGSGSGTGFTLTINSLQPEDFATYFCQQSHSTPITFGGGTRVDIK
notes: as for B1
B15: YU392-H02 (antibody)
scFv: QLQLQESGPGLVNLSQTLSLTCTVSGGSISSGGYYWSWIRQHPGKGLEWIGYIYYSGSTYYNPSLKSRVTISVDTSKNQFSLKLSSVTAADTAVYYCARDSSSGPYGMDVWGQGTTVTVSSQSVLTQPPSVSVAPGQTARVTCGGSNIGSQSVHWYQQKPGQAPVLVVYDDYDRPSGIPERFSGSNSGNTATLTITRVDAGDEADYYCQIWDSSSAHVVFGGGTKLTVL
notes: as for B1
B16: YU401-B01 (antibody)
scFv: PGSSVKVSCKASGGTFSSYAISWVRQAPGQGLEWMGGIIPIFGTANYAQKFQGRVTITADESTSTAYMELSSLRSEDTAVYYCAREMYYYYGMDVWGQGTTVTVSSDIVMTQSPSSLSASVGDRVTITCRASQSIITYLNWYQQKPGKVPKLLIYAASSLQSGVPSRFSGSGSGTDFTLTISSLQPEDFATYYCQQSYSTPPTFGQGTKLEIK
notes: as for B1
B17: YU392-B11 (antibody)
scFv: PGATVKISCKVSGYTFTDYYMHWVQQAPGKGLEWMGLVDPEDGETIYAEKFQGRVTITADTSTDTAYMELSSLRSEDTAVYYCAVEGGRAPGTYYYDSSGLAYWGQGTLVTVSSQAGLTQPPSASGTPGQRVTISCSGSSSNIGSNYVYWYQQLPGTAPKLLIYSNNQRPSGVPDRFSGSKSGTSASLAISGLRSEDEADYYCATWDDSLSGVVFGGGTKLTVL
notes: as for B1

Target: T1, full-length CD25
Experiment: Octet biolayer interferometry, human IgG1 against CD25

Row | Kd [nM] | Binder
1 | 16.1 | B1
2 | 54.5 | B2
3 | 3.86 | B3
4 | 20.2 | B4
5 | 31.9 | B5
6 | 8.3 | B6
7 | 9.55 | B7
8 | 12.1 | B8
9 | 12.4 | B9
10 | 15.3 | B10
11 | 57.8 | B11
12 | 9.1 | B12
13 | 13.7 | B13
14 | 25.7 | B14
15 | 10.6 | B15
16 | 70.4 | B16
17 | 65.6 | B17
